In the nanobody polyreactivity screen of Harvey et al. (2022):

assay: yeast display, Sf9 membrane polyspecificity reagent, FACS + sequencing; frameworks hold sequencing errors
Summary of the method: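 Using colony PCR, genes from sorted yeast display clones were amplified, then sequenced on MiSeq at 2 × 250 and filtered by CDR length. The clones had been stained with 10% biotinylated, detergent-solubilized Sf9 membrane reagent for 1 hour at 4 °C and sorted by FACS into low and high (top ~1%) gates on anti-HA and streptavidin fluorescence. Polyreactivity labels come from the gate of origin.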

Sequence | polyreactivity (PSR sort gate)
QVQLVESGGGLVQAGGSLRLSCAASGSILDYYAMGWYRQAPGKERELVAAIRVNGGSTYYADSVKGRFTISRDNAKNTVYLQMNSLKPEDTAVYFCAARFSRFRRTRSEYDYWGQGTQVTVSS | high polyreactivity
QVQLVESGGGLVQAGGSLRLSCAASGSILEYYAMGWYRQAPGKERELVAGISSAGNTYYADSVKGRFTISRDNAKNTVYLQMNSLKPEDTAVYYCAAVPWSGEYDYWGQGTQVTVSS | low polyreactivity
QVQLVESGGGLVQAGGSLRLSCAASGSILFGNAMGWYRQAPGKEMELVAAITVSGGSTYYADSVKGRFTISRDNAKNTVYLQMNSLKPEDTAVYYCAAVSLFRDSQFDYWGQGTQVTVSS | low polyreactivity
QVQLVESGGGLVQAGGSLRLSCAASGSILFTNAMGWYRQAPGKERELVAAISSGGSTYYADSVKGRFTISRDNAKNTVYLQMNSLKPEDTAVYYCAADQLNVGREYVEYDYWGQGTQVTVSS | low polyreactivity
QVQLVESGGGLVQAGGSLRLSCAASGSILFYAMVWYRQAPGKERELVAAITWRGGSTYYADSVKGRFTISRDNAKNSVYLQMNSLKPEDTAVYYCARDETGRIEGDYWGQGTQVTVSS | high polyreactivity
QVQLVESGGGLVQAGGSLRLSCAASGSILGGNAMGWYRKAPGKERELVAAITFSGGGTYYADSVKGRFTISRDNAKNTVYLHMNSLKPEDTAVYYCAADKDGYTYEFDYWGQGTQGTVSS | low polyreactivity
QVQLVESGGGLVQAGGSLRLSCAASGSILGINVMGWYRQAPGKERELVAAISRRGGSTYYADSVKGRFTISRDNAKNTVYLQMNSLKPEDTAVYYCAATRTARTMGYCGQGTQVTVSS | high polyreactivity
QVQLVESGGGLVQAGGSLRLSCAASGSILGLNAMGWYRQAPGKERELVAAITSRGGSTYYADSVKGRFTISRDNAKNTVYLQMNSLKPEDTAVYYCNREYVRVNYQYWYYAEYDYWGQGTQVTVSS | low polyreactivity
QVQLVESGGGLVQAGGSLRLSCAASGSILGLNVMGWYRQAPGTEREVVAAISRRGGSTYYADSVKGRFTISRDNAKNTVYLQMNSLKPEDTAVYYCAATRTARTMGYWGQGTQVTVSS | high polyreactivity
QVQLVESGGGLVQAGGSLRLSCAASGSILGLYAMGWYRQAPEKDRELVAASTWSGGSTYYADSVKGRFTISRDNAKNTVYLQMNSLKPEDTAVYYCAALARGYWVVNSLGSYDYWGQGTQVTVSS | high polyreactivity
QVQLVESGGGLVQAGGSLRLSCAASGSILGLYAMGWYRQAPGKERELVAAITYRGGRTDYADSVKGRFTISRDNAKNTVYLQMNSLKPEDTAVYYCAAGYLPRPRYSTSYLYYYWGQGTQVTVSS | high polyreactivity
QVQLVESGGGLVQAGGSLRLSCAASGSILGLYAMGWYRQAPGKERELVASITSSGSTYYADSVKGRFTISRDNAKNTVYLQMNSLKPEDTAVYYCAARYYYGRRYDYWGQGTQVTVSS | low polyreactivity
QVQLVESGGGLVQAGGSLRLSCAASGSILGVYTMGWDRQAPGKERELVAAITSSSSSTYADSVKGRFTISRDNAKNTVYLQMNSVIPEDTAVYYCATRGWSKQLYGGYTQYYYWGQGTQVTVSS | high polyreactivity
QVQLVESGGGLVQAGGSLRLSCAASGSILGYNAMGWYRQAPGKEREFVAAITYSGGTTYYADSVKGRFTISRDNAKNTVYLQMNSLKPEDTAVYYCAADYSVYDEFDYWGQGTQVTVSS | high polyreactivity
QVQLVESGGGLVQAGGSLRLSCAASGSILGYYAMGWYRQAPGKERELVAAISSGGSTNYADSVKGRFTISRDNAKNTVYLQMNSLKPEDTAVYYCAAGVTWPYRYVWYDYWGQGTQVTVSS | low polyreactivity
QVQLVESGGGLVQAGGSLRLSCAASGSILGYYVMGWYRQAPGKERELVAAISWSSGSTYYADSVKGRFTISRDNAKNTVYLQLNSLKPEDTAVYYCNASNVYFWFVTLEFDSWGQGTQVTVSS | low polyreactivity
QVQLVESGGGLVQAGGSLRLSCAASGSILIWNTMGWDRQAPGKDRELVAAISSGGSTYYADSVKGRFTISRDNAKNTVYLQMNSLKPEDTAVYYCNVDLPRVLTDDSWGQGTHVTVSS | low polyreactivity
QVQLVESGGGLVQAGGSLRLSCAASGSILKSYAMGWYRQAPGKERELVAAITYRDGSTYYADSVKGRFTISRDNAKNTVYLQMNSLKPEDTAVYYCAAEPSWWNVFYPGYNYWGQGTQVTVSA | high polyreactivity
QVQLVESGGGLVQAGGSLRLSCAASGSILKVYAMGWYRQAPGKERELVAGITRSGVRTNYADSVKGRFTISRDNAKNTVYLQMNSLKPEDTAVCYCAAVGYVYRTYWYTRQSTYEYWGQGTQVTVSS | high polyreactivity
QVQLVESGGGLVQAGGSLRLSCAASGSILLYYTMGWYRQAPGKERELVASITSGGRTYYADSVKGRFTISRDNAKNTVYLQMNSLKPEDTAVYYCAADVWKLYDYWGQGTQVTVSS | low polyreactivity
QVQLVESGGGLVQAGGSLRLSCAASGSILNNYAMGWYRQAPGKERELVAAISSSGGTNYADSVKGRFTISRDNAKNTVYLPMNSLKPVDTAVYYCNADVLDGGYDYWGQGTQVTVSS | low polyreactivity

Sequence | polyreactivity (PSR sort gate)
QVQLVESGGGLVQAGGSLRLSCAASGSILPRYAMGWYRQAPGKERELVAAITSGGITSYADSVKGRFTISRDNAKNTVYLQMNSLKPEDTAVYYCAADWYVIYDYWGQGTQVTVSS | low polyreactivity
QVQLVESGGGLVQAGGSLRLSCAASGSILPTNAMGWYRPAPGKERELVASITYNGGRTSYADSVKGRFTISRDNAKNTVYLQMNSLKPEDTAVYYCAARVWYQGYKSMGYWGQGTQVTVSS | high polyreactivity
QVQLVESGGGLVQAGGSLRLSCAASGSILPYNAMGWYRQAPGKERELVASISRGGGTNYADSVKGRFTISRDNAKNTVYLQMNSLKPEDTAVYYCAARTLRVDYDSHWYSLVDYWGQGTQVTVSS | low polyreactivity
QVQLVESGGGLVQAGGSLRLSCAASGSILPYNAMGWYRQAPGKERELVCSSSRGGGTNYADSVKGRFTISRDNAKNTVYLQMNSLKPEDTAVYYCAARTLRVDYDSHWYSLVDYWGQGTQVTVSS | low polyreactivity
QVQLVESGGGLVQAGGSLRLSCAASGSILPYYAMGWYRQAPGKERELVAAISDSGGSTYYADSVKGRFTISRDNSKNTVYLQMNILKPEDTAVYYCNAVVRSTAHGYWGQGTQVTVSS | high polyreactivity
QVQLVESGGGLVQAGGSLRLSCAASGSILQINPMGWYRPAPAKERDLVAANDWGGGDTYYADSVKGRFTIARDNAKNTVYVQMISLKTEDTAVYYCAAEGVSWYVWDFYDIYGYWGHGTQVTVSS | high polyreactivity
QVQLVESGGGLVQAGGSLRLSCAASGSILQRNAMGWYRHARGTERELVAAISWSGDNTYYADSVKGRFTISRDNAKNTVYLQMISLKPEDTAVYYCATDDDIYFQEYDYWGQGTQVTVSA | low polyreactivity
QVQLVESGGGLVQAGGSLRLSCAASGSILRLYVMGWYIQAPGKDRELVADISDRGGSTYYADSVKGRFTISRDNAKNTVYLQMNSLKPEDTAVYYCAAEWGQRGGGGYYYWGQGTQVTVSS | low polyreactivity
QVQLVESGGGLVQAGGSLRLSCAASGSILRQYAMGWYRQAPGKERELVATITGDGSTNYADSVKGRFTISRDNAKNTVYLQMNSLKPEDTAVYYCNTALTYPYPNVEDLVYGFKLDYWGQGTQVTVSS | low polyreactivity
QVQLVESGGGLVQAGGSLRLSCAASGSILRQYAMGWYRQAPGKERELVATITGDGSTNYADSVKGRFTISRDNAKNTVYLQMNSLKPEDTAVYYCNTYLTYPYPNVEVLVYGFKLDYWGQGTQVTVSS | low polyreactivity
QVQLVESGGGLVQAGGSLRLSCAASGSILRSNAMGWYIQAPGKERELVATITNSGGSTYSDSVKGSFTISRDNAKNTVYVQMNSLKPEVTAVYYCAKAGAGESIAKYDYWGQGTQVTVSS | low polyreactivity
QVQLVESGGGLVQAGGSLRLSCAASGSILRYYAMGWFRQAPGKERELVAAISYSGGSTYYADSVKGRFTISRDNAKNTVYLQMNSLKPEDTAVYYCNKLYDRGYDYWGQGTQVTVSS | high polyreactivity
QVQLVESGGGLVQAGGSLRLSCAASGSILSFNAMGWYRQAPGKERELVAAICRGGSTYYADSVKGRFTISRDNAKNTVYLQMNSLKPEDTAVYYCAVQLRRHVDMDYWGQGTQVTVSS | high polyreactivity
QVQLVESGGGLVQAGGSLRLSCAASGSILSYYAMGWYRQAPGKERELVAAISKSGGRTYYADSVKGRFTISRDNAKNTVYLQMNRLKPEDTAVYYCAAPATYKYDYWGQGTQVTVSS | high polyreactivity
QVQLVESGGGLVQAGGSLRLSCAASGSILTPYAMGWYRQAPGKERELVAAISWGDGSTYYADSVKGRFTISRDNAKNTVYLQMNSLNPEDNAVYYCAAVSYYGVDQYRITVYTYEYWGQGTQVTVSS | low polyreactivity
QVQLVESGGGLVQAGGSLRLSCAASGSILVQSAMGWERQAPGKERELVAAISRGGSTNYADSVKGRFTISRDNPKNTVYLQMNSLKPEDTAVYYCAARRPWGEYYWGQGTQVNVSS | low polyreactivity
QVQLVESGGGLVQAGGSLRLSCAASGSILVRYSMGWYRQAPGKERELVAAITSGGSTYADSVKGRFTISRDNAKNTVYLQLNSLNPEDTAVYYCARDYFNREAFDYWGQGTQVTVSS | low polyreactivity
QVQLVESGGGLVQAGGSLRLSCAASGSILVSYAMGWYRQAPGKERELVAAITRSGVRTYYADSVKGRFTISRDNAKNSVYLQMNSLKPEDTAVYYCAADTYRSSSPYGYWGQGTQVTVSS | high polyreactivity
QVQLVESGGGLVQAGGSLRLSCAASGSILWDNAMGWYRQAPGKERELVATISVSGGGTYYADSVKGRFTISLDNAKNTVYLQMNSLKPEDTSVYYCNARYGNESQGWEDYWGQGTQVTVSS | low polyreactivity
QVQLVESGGGLVQAGGSLRLSCAASGSILYFNAMGWYRQAPGKEREFVATIRRSGGSTNYADSVKGRFTISRDNAKNTVYLQMNSVKREDTAVYYCNARLSSGYTSWRYNYWGQGTQVSVSS | high polyreactivity
